Measured values reported in the supplement of paper PMC10724198.
± gives the standard deviation of the averaged measurements.

Tested on: Saccharomyces cerevisiae
Assay: protein stability index of tFT-peptide fusion (C-terminal peptide) (PSI (0-1 scale)); higher = more stable (slower turnover)
Details: genetic background: wild type; temperature: 30 C
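Note: PSI is a weighted mean of sequencing reads over stability bins, variants kept only with over 10 reads, mCherry proximal and sfGFP distal, peptide attached via GGGS linker.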

Sequence	protein stability index
PLPRFLTLTLSQ	0.652 ± 0.023
PLPRLPSSLSRP	0.697 ± 0.023
PLPSARPPPLPS	0.685 ± 0.011
PLPSLPPPPPPL	0.661 ± 0.076
PLPSPDLPLTHH	0.679 ± 0.025
PLPSPRLRFLVP	0.653 ± 0.036
PLPSVPESPAPP	0.693 ± 0.045
PLRAPPHPPPVP	0.623 ± 0.048
PLRPPCPLPPRT	0.6031 ± 0.0056
PLRPQALDPFLY	0.6835 ± 0.0028
PLRPSSPLPPPL	0.71 ± 0.021
PLSNAPRPSQVA	0.736 ± 0.056
PLSPPHRLTAAL	0.756 ± 0.19
PLSPPPPPPPPL	0.707 ± 0.018
PLSPSCCLRRPL	0.777 ± 0.24
PLSPSLPNPCSL	0.706 ± 0.0079
PLSPSPPPASLL	0.702 ± 0.018
PLSPTSPLPSPA	0.6779 ± 0.0039
PLSQLPAFSPVS	0.687 ± 0.0095
PLSTPPPLLLTP	0.719 ± 0.12
PLSYRRFTRLPR	0.68 ± 0.066
PLTEELCFSAWG	0.734 ± 0.031
PLTFSFPVRVCD	0.537 ± 0.028

Sequence	protein stability index
PLTPPPALILFP	0.693 ± 0.022
PLTPSPRPPPPS	0.615 ± 0.15
PLTVPLPSPRLI	0.645 ± 0.1
PLVPRCFVPPVI	0.657 ± 0.023
PLWCLPSLPPPF	0.797 ± 0.031
PLWEYGCLFASS	0.718 ± 0.03
PLWLPPTPMQII	0.62 ± 0.013
PLYHPSESYNPA	0.678 ± 0.016
PLYSLVSPPYAT	0.651 ± 0.019
PMLSDVPTHSIS	0.719 ± 0.039
PMPPPHLLPSSS	0.723 ± 0.024
PMSPCPTRSINA	0.702 ± 0.031
PMVLLDTIQRHT	0.721 ± 0.033
PNHGEYRNGLYV	0.715 ± 0.11
PNLKKHFRADEP	0.6832 ± 0.0036
PNLSPPTPLSAD	0.649 ± 0.018
PPAAAPPSPPPL	0.663 ± 0.0036
PPAAPPPQPHLT	0.696 ± 0.032
PPAEPLRLHAHA	0.709 ± 0.054
PPALRSPCPSHP	0.747 ± 0.14
PPAPLAPPPAGC	0.67 ± 0.038
PPAPLPQSAPTR	0.645 ± 0.038
PPAPPLFVSSPG	0.684 ± 0.048

Sequence	protein stability index
PPAPPPRLPSPP	0.713 ± 0.098
PPAPSPPPPPPP	0.622 ± 0.055
PPAPYPPFPLEL	0.821 ± 0.078
PPCLYPFPPPSR	0.661 ± 0.017
PPCPPPPPVLPT	0.66722 ± 0.00014
PPDAPPMPPPQH	0.738 ± 0.083
PPDYPAPPPPPL	0.695 ± 0.034
PPEPSYPPLPPR	0.717 ± 0.011
PPGPPPPPAPPL	0.724 ± 0.062
PPGVTPLSLCAC	0.534 ± 0.0088
PPHAPKPPPTAA	0.588 ± 0.077
PPHLSPPPPPLL	0.6987 ± 0.0054
PPHPFPPPPPPS	0.665 ± 0.069
PPHPHNPRPSTP	0.6548 ± 0.0046
PPHPPPLLPFSI	0.764 ± 0.009
PPIFPSPPPPAD	0.61 ± 0.011
PPILLAYITPPM	0.656 ± 0.0076
PPIRLPSPLLPH	0.7123 ± 0.0056
PPKPAQPPTPSP	0.693 ± 0.075
PPLAPPTPHPLS	0.716 ± 0.029
PPLEHPGIAGGR	0.644 ± 0.1
PPLFPPLAPLHR	0.72 ± 0.032
PPLFSSTNKNPR	0.664 ± 0.0076

Sequence	protein stability index
PPLLAPPTPLPQ	0.674 ± 0.051
PPLLLRFLTIHL	0.571 ± 0.027
PPLLPLLCPHSL	0.738 ± 0.016
PPLLPTPRPPPP	0.65 ± 0.037
PPLLRSPPPLSP	0.675 ± 0.022
PPLNPHPPAPTP	0.724 ± 0.032
PPLPAPPPPFPP	0.59 ± 0.022
PPLPFARAPHCP	0.732 ± 0.059
PPLPHQPSHPIS	0.672 ± 0.053
PPLPLPPPHPPP	0.503 ± 0.047
PPLPPLPLPNPP	0.676 ± 0.064
PPLPPLPSPLPL	0.674 ± 0.014
PPLPPLRPIRSP	0.702 ± 0.035
PPLPPPLLPSSS	0.711 ± 0.12
PPLPPPLSLPPP	0.657 ± 0.06
PPLPPPPPPFPP	0.5534 ± 0.0012
PPLPPPSVPPPC	0.716 ± 0.012
PPLPPSLPGSSL	0.642 ± 0.053
PPLPPSPRLLPP	0.635 ± 0.056
PPLPRPSLPPLP	0.676 ± 0.054
PPLPSFILSPRA	0.705 ± 0.027
PPLPSGLHPTLT	0.6932 ± 0.0052
PPLPSTAPPSPL	0.735 ± 0.0096

Sequence	protein stability index
PPLPTPPPPPDP	0.662 ± 0.052
PPLRFFPPVSSH	0.667 ± 0.014
PPLRPPPLHPPR	0.705 ± 0.036
PPLRPPPPPPPP	0.668 ± 0.072
PPLRPRCSPAPR	0.706 ± 0.01
PPLRQLTIPLTH	0.723 ± 0.0088
PPLSPPPLPAAP	0.724 ± 0.03
PPLSPPPSASSS	0.738 ± 0.065
PPLSSPPSLSPP	0.703 ± 0.049
PPLTSSPPFSPP	0.728 ± 0.09
PPLYPPPRDLPP	0.5453 ± 0.0038
PPNPLHPPPSRP	0.653 ± 0.044
PPNPPPNPPSRY	0.738 ± 0.047
PPPALVPRPPPR	0.679 ± 0.0084
PPPAPPCFAPFP	0.673 ± 0.019
PPPAPPPLPTSP	0.771 ± 0.095
PPPAPPPPHSLV	0.717 ± 0.057
PPPDPPLHHNLP	0.693 ± 0.036
PPPFPPPSFASR	0.696 ± 0.057
PPPFPYRTALLP	0.708 ± 0.016
PPPGAPAPPPSS	0.692 ± 0.12
PPPGCRPSPPLP	0.683 ± 0.069
PPPGLPPPLPPS	0.767 ± 0.015

Sequence	protein stability index
PPPGRRRLRGPT	0.705 ± 0.04
PPPHPPPPASPP	0.653 ± 0.034
PPPHPSPSRRSS	0.681 ± 0.029
PPPHVPPPPSSL	0.711 ± 0.023
PPPIYTPPPPPL	0.697 ± 0.053
PPPKRTPTPQCP	0.702 ± 0.078
PPPLAPPTSLRF	0.715 ± 0.075
PPPLFPPSSLLP	0.706 ± 0.033
PPPLLSAPPHCE	0.684 ± 0.052
PPPLPLLPSSPL	0.685 ± 0.013
PPPLPLPSPPPS	0.664 ± 0.08
PPPLPPAPPSPP	0.703 ± 0.19
PPPLPPLPPPTL	0.698 ± 0.045
PPPLPPPLILTP	0.643 ± 0.054
PPPLPPPPAPPY	0.734 ± 0.018
PPPLPPPPASPP	0.685 ± 0.01
PPPLPPPTPLSP	0.5736 ± 0.0043
PPPLPPQTLTFC	0.729 ± 0.075
PPPLPSAPPTGT	0.706 ± 0.026
PPPLPSPPPRLP	0.693 ± 0.014
PPPLRFLSFPPS	0.661 ± 0.057
PPPLRPPPPPLP	0.645 ± 0.021
PPPLSCPSRPSL	0.526 ± 0.12

Sequence	protein stability index
PPPLSFPSVYLT	0.75 ± 0.12
PPPLSPSFIPPP	0.698 ± 0.042
PPPLTPPTCLPP	0.644 ± 0.013
PPPMSVAVFPFG	0.678 ± 0.03
PPPNSPPRPPLS	0.7035 ± 0.0046
PPPPALIHSRPP	0.7406 ± 0.0045
PPPPARSPLTPL	0.725 ± 0.15
PPPPDLPYPLPL	0.754 ± 0.025
PPPPFLPVLLFP	0.696 ± 0.08
PPPPFPPPPPHS	0.719 ± 0.039
PPPPGPPPPSSL	0.6914 ± 0.006
PPPPLCPPPLSF	0.638 ± 0.016
PPPPLPAPLSPA	0.651 ± 0.021
PPPPLRPHHLTS	0.696 ± 0.021
PPPPLRSPPRSF	0.713 ± 0.02
PPPPLSPPPAPA	0.682 ± 0.048
PPPPPAPLLLLP	0.78 ± 0.1
PPPPPAPPPVSI	0.659 ± 0.071
PPPPPASTPASS	0.6808 ± 0.0013
PPPPPHALSPPP	0.664 ± 0.011
PPPPPHTSPSPT	0.744 ± 0.042
PPPPPLGPLPAL	0.688 ± 0.012
